These results are taken from patent publication US20240342310A1 (UNIVERSITY OF VIRGINIA PATENT FOUNDATION, published 2024).

In this assay the target is T1, fibronectin leucine rich transmembrane protein 3 (FLRT3) (UniProt Q9NZU0 29-649, limits assumed).
T1 sequence (looked up): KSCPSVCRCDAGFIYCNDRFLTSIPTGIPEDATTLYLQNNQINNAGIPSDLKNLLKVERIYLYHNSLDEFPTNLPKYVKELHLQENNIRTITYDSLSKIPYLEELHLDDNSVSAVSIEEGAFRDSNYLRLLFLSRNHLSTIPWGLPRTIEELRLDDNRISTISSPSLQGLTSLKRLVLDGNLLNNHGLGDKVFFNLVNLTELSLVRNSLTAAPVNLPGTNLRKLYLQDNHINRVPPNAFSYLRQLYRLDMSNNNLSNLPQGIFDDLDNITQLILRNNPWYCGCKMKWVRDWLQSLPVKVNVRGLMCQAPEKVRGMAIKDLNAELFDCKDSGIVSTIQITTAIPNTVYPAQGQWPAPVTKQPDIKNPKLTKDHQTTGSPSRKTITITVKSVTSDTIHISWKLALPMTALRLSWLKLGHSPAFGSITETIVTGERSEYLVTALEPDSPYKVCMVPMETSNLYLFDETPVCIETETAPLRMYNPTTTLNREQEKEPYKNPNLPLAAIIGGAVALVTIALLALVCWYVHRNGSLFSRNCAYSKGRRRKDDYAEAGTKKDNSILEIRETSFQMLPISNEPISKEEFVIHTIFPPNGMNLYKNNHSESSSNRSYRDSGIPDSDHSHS
Briefly: co-immunoprecipitation (data not shown).

B1: circCCDC7-180aa (other)
chain: MQVGNSQTKVKGEDSKNIPLEKETRKSLVSDSGGQRTSDKIQEYPQITAQSGRLIEKSSEKKRSSPAISDLSQILKSQDESAFLESSNEVSVAENQSYKSPSETHDKSLTTVSSSKEVQDSLSVGTLAQKNETVISPFILPPVLTESKKADVSEEQLQKMTEEQTYQAAEKSQESSTSGN
notes: All other experiments on the protein used the C-terminally 3xFLAG-tagged form expressed from plenti-ciR-GFP-T2A; also called 180aa protein encoded by circCCDC7(15, 16, 17, 18, 19); CCDC719-15 encoded protein; not shown: 3xFLAG tag inserted just before the stop codon in the expression construct
Consider B1, for which the binding result is on record as “no binding”.
